IC50 of inhibition of GFP expression in transduced 293T cells (reciprocal dilution of the pooled human IgG antibody sample data for one substance are collected here from patent publication US20200338146A1.

For experiment [1], the target named is AAV2.5T.LSV1 virion expressing GFP (AAV2.5T.LSV1-CMV-GFP). Nature of the experiment: cell-based or functional assay.
The target in experiment [2] is AAV2 virion expressing GFP (AAV2-CMV-GFP) (AAV2) (UniProt P03135). The experiment in a line: cell-based or functional assay.

For the substance “pooled human IgG antibodies (Gammagard IVIG)”, the IC50 of inhibition of GFP expression in transduced 293T cells (reciprocal dilution of the pooled human IgG antibody sample at which GFP expression is reduced by 50%) (reciprocal dilution) is 9.3 in experiment [1] and 104 in experiment [2].
